# Where a chain is given by its changes, count along the chain named. In names and notes the source's numbering stands.
# B1: BCL11B: FLAG-BCL11B, wild-type protein expressed in transfected HEK293T cells (protein)
# chain: MSRRKQGNPQHLSQRELITPEADHVEAAILEEDEGLEIEEPSGLGLMVGGPDPDLLTCGQCQMNFPLGDILVFIEHKRKQCGGSLGACYDKALDKDSPPPSSRSELRKVSEPVEIGIQVTPDEDDHLLSPTKGICPKQENIAGPCRPAQLPAVAPIAASSHPHSSVITSPLRALGALPPCLPLPCCSARPVSGDGTQGEGQTEAPFGCQCQLSGKDEPSSYICTTCKQPFNSAWFLLQHAQNTHGFRIYLEPGPASSSLTPRLTIPPPLGPEAVAQSPLMNFLGDSNPFNLLRMTGPILRDHPGFGEGRLPGTPPLFSPPPRHHLDPHRLSAEEMGLVAQHPSAFDRVMRLNPMAIDSPAMDFSRRLRELAGNSSTPPPVSPGRGNPMHRLLNPFQPSPKSPFLSTPPLPPMPPGGTPPPQPPAKSKSCEFCGKTFKFQSNLIVHRRSHTGEKPYKCQLCDHACSQASKLKRHMKTHMHKAGSLAGRSDDGLSAASSPEPGTSELAGEGLKAADGDFRHHESDPSLGHEPEEEDEEEEEEEEELLLENESRPESSFSMDSELSRNRENGGGGVPGVPGAGGGAAKALADEKALVLGKVMENVGLGALPQYGELLADKQKRGAFLKRAAGGGDAGDDDDAGGCGDAGAGGAVNGRGGGFAPGTEPFPGLFPRKPAPLPSPGLNSAAKRIKVEKDLELPPAALIPSENVYSQWLVGYAASRHFMKDPFLGFTDARQSPFATSSEHSSENGSLRFSTPPGDLLDGGLSGRSGTASGGSTPHLGGPGPGRPSSKEGRRSDTCEYCGKVFKNCSNLTVHRRSHTGERPYKCELCNYACAQSSKLTRHMKTHGQIGKEVYRCDICQMPFSVYSTLEKHMKKWHGEHLLTNDVKIEQAERS
# modifications: left off: FLAG, end not stated, kept
# notes: FLAG-BCL11B, wild-type protein expressed in transfected HEK293T cells
# B2: BCL11B p.R3S: FLAG-BCL11B p.R3S, patient-derived mutant protein expressed in transfected HEK293T cells (protein, UniProt Q9C0K0 1-894, looked up, variant R3S)
# B-cell lymphoma/leukemia 11B: B1 chain with R3S
# modifications: FLAG tag
# notes: FLAG-BCL11B p.R3S, patient-derived mutant protein expressed in transfected HEK293T cells
# What was measured:
# PRC2 complex = experiment: Co-immunoprecipitation with PRC2 complex (EZH2) in transfected HEK293T cells; type: binding; conditions: anti-FLAG co-IP, HEK293T extracts; EZH2 as PRC2 marker
# Experimental: (§1) HEK293T cells were transfected with vectors encoding FLAG-BCL11B ([54]), FLAG-BCL11B p.R3S or Myc-SIRT1 using the calcium phosphate method. Transfected cells were harvested in ice-cold phosphate-buffered saline (PBS) 48 h after transfection. Cell suspensions were centrifuged at 2000g for 5 min, followed by lysis under native conditions in buffer containing 20 mM HEPES, pH 7.4, 250 mM NaCl, 2 mM EDTA, 10% glycerol, 0.5% NP-40, 0.1 mM PMSF, 1 μg/mL pepstatin A, 5 μg/mL leupeptin, 10 μM E64, 25 mM NaF, 5 mM […] and 10 mMN-ethylmaleimide. Cells were incubated on ice for 30 min with vortexing every 5 min, followed by sonication on ice to complete lysis and shear DNA. The lysate was cleared by centrifugation, and BCL11B was immunoprecipitated from native extracts with anti-FLAG antibody (Sigma F4042), as previously described ([54]). […] Fluorescent signal was recorded on an Odyssey dual-channel near-infrared imager (LI-COR) and analysed with manufacturer-supplied software (Image Studio, version 2.1).
# HEK293T cells = experiment: Immunocytochemistry (expression and nuclear localization) in HEK293T cells; type: cell-based; conditions: 48 h after transfection, anti-BCL11B and DAPI
# Experimental: HEK293T cells were grown on 0.1% gelatin-coated glass coverslips in 24-well plates seeded at 25 000 cells/well for 24 h prior to transfection with vectors encoding FLAG-BCL11B or FLAG-BCL11B p.R3S. Forty-eight hours after transfection, cells were washed twice with PBS, fixed in 4% paraformaldehyde in PBS for 10 min at room temperature, permeabilized with 0.3% Triton X-100/PBS for 10 min and washed twice with 0.1% Tween/PBS. The fixed and permeabilized cells were then prepared for immunocytochemistry by blocking for 1 h in 10% foetal bovine serum (FBS) in PBS, incubating for 4 h with rat anti-BCL11B monoclonal antibody (Abcam ab18465, 0.25 μg/ml) in 10% FBS/PBS, then incubating for 1.5 h with an anti-rat Cy3-conjugated secondary antibody (Jackson ImmunoResearch Laboratories, 1:500 dilution), followed by a final incubation in 10 μg/ml DAPI in PBS for 10 min. Cells were washed twice with 0.1% Tween/PBS between each immunocytochemistry step, and all incubations were conducted at room temperature. Cells were then washed twice with deionized water, followed by step-wise dehydration with 70% ethanol, 100% ethanol and xylene. Coverslips were then mounted on glass slides with DPX (VWR), dried overnight and stored at 4°C in the dark. Fluoromicrographs were obtained using a Zeiss microscope with appropriate filters and a 63× oil-immersion objective. […]
# NuRD complex = experiment: Co-immunoprecipitation with NuRD complex (MTA2, HDAC2) in transfected HEK293T cells; type: binding; conditions: anti-FLAG co-IP, HEK293T extracts; MTA2 and HDAC2 as NuRD markers
# Experimental: as §1
# SIRT1 = experiment: Co-immunoprecipitation with SIRT1 in transfected HEK293T cells; type: binding; conditions: anti-FLAG co-IP, HEK293T extracts; Myc-SIRT1
# Experimental: as §1
Molecule,interaction with PRC2 complex (PRC2 complex),expression and nuclear localization (HEK293T cells),interaction with NuRD complex (NuRD complex),interaction with SIRT1 (SIRT1)
B1,demonstrated herein,–,–,–
B2,does not interact with the NuRD or PRC2 complexes,well expressed and localized in the nucleus in a manner that was indistinguishable from wild-type protein,does not interact with the NuRD or PRC2 complexes,did not alter interaction of the protein with the class III histone deacetylase SIRT1

# Reference: article PMC6644156, “A de novo substitution in BCL11B leads to loss of interaction with transcriptional complexes and craniosynostosis” (Human Molecular Genetics, 2019)
